This data set can be described thus: Western blot, mature upper band, B3GnT2-/- HEK293T. The following applies: glycan lost; control: wild-type LRP6.

In article PMC10047360 one finds localisation_or_trafficking data, which are given here for four proteins.

B1: LRP6: N1039Q (protein)
parent chain: MGAVLRSLLACSFCVLLRAAPLLLYANRRDLRLVDATNGKENATIVVGGLEDAAAVDFVFSHGLIYWSDVSEEAIKRTEFNKTESVQNVVVSGLLSPDGLACDWLGEKLYWTDSETNRIEVSNLDGSLRKVLFWQELDQPRAIALDPSSGFMYWTDWGEVPKIERAGMDGSSRFIIINSEIYWPNGLTLDYEEQKLYWADAKLNFIHKSNLDGTNRQAVVKGSLPHPFALTLFEDILYWTDWSTHSILACNKYTGEGLREIHSDIFSPMDIHAFSQQRQPNATNPCGIDNGGCSHLCLMSPVKPFYQCACPTGVKLLENGKTCKDGATELLLLARRTDLRRISLDTPDFTDIVLQLEDIRHAIAIDYDPVEGYIYWTDDEVRAIRRSFIDGSGSQFVVTAQIAHPDGIAVDWVARNLYWTDTGTDRIEVTRLNGTMRKILISEDLEEPRAIVLDPMVGYMYWTDWGEIPKIERAALDGSDRVVLVNTSLGWPNGLALDYDEGKIYWGDAKTDKIEVMNTDGTGRRVLVEDKIPHIFGFTLLGDYVYWTDWQRRSIERVHKRSAEREVIIDQLPDLMGLKATNVHRVIGSNPCAEENGGCSHLCLYRPQGLRCACPIGFELISDMKTCIVPEAFLLFSRRADIRRISLETNNNNVAIPLTGVKEASALDFDVTDNRIYWTDISLKTISRAFMNGSALEHVVEFGLDYPEGMAVDWLGKNLYWADTGTNRIEVSKLDGQHRQVLVWKDLDSPRALALDPAEGFMYWTEWGGKPKIDRAAMDGSERTTLVPNVGRANGLTIDYAKRRLYWTDLDTNLIESSNMLGLNREVIADDLPHPFGLTQYQDYIYWTDWSRRSIERANKTSGQNRTIIQGHLDYVMDILVFHSSRQSGWNECASSNGHCSHLCLAVPVGGFVCGCPAHYSLNADNRTCSAPTTFLLFSQKSAINRMVIDEQQSPDIILPIHSLRNVRAIDYDPLDKQLYWIDSRQNMIRKAQEDGSQGFTVVVSSVPSQNLEIQPYDLSIDIYSRYIYWTCEATNVINVTRLDGRSVGVVLKGEQDRPRAVVVNPEKGYMYFTNLQERSPKIERAALDGTEREVLFFSGLSKPIALALDSRLGKLFWADSDLRRIESSDLSGANRIVLEDSNILQPVGLTVFENWLYWIDKQQQMIEKIDMTGREGRTKVQARIAQLSDIHAVKELNLQEYRQHPCAQDNGGCSHICLVKGDGTTRCSCPMHLVLLQDELSCGEPPTCSPQQFTCFTGEIDCIPVAWRCDGFTECEDHSDELNCPVCSESQFQCASGQCIDGALRCNGDANCQDKSDEKNCEVLCLIDQFRCANGQCIGKHKKCDHNVDCSDKSDELDCYPTEEPAPQATNTVGSVIGVIVTIFVSGTVYFICQRMLCPRMKGDGETMTNDYVVHGPASVPLGYVPHPSSLSGSLPGMSRGKSMISSLSIMGGSSGPPYDRAHVTGASSSSSSSTKGTYFPAILNPPPSPATERSHYTMEFGYSSNSPSTHRSYSYRPYSYRHFAPPTTPCSTDVCDSDYAPSRRMTSVATAKGYTSDLNYDSEPVPPPPTPRSQYLSAEENYESCPPSPYTERSYSHHLYPPPPSPCTDSS
B1: the localisation_or_trafficking result is given as “no change”.

B2: LRP6: N42Q (protein)
parent chain: MGAVLRSLLACSFCVLLRAAPLLLYANRRDLRLVDATNGKENATIVVGGLEDAAAVDFVFSHGLIYWSDVSEEAIKRTEFNKTESVQNVVVSGLLSPDGLACDWLGEKLYWTDSETNRIEVSNLDGSLRKVLFWQELDQPRAIALDPSSGFMYWTDWGEVPKIERAGMDGSSRFIIINSEIYWPNGLTLDYEEQKLYWADAKLNFIHKSNLDGTNRQAVVKGSLPHPFALTLFEDILYWTDWSTHSILACNKYTGEGLREIHSDIFSPMDIHAFSQQRQPNATNPCGIDNGGCSHLCLMSPVKPFYQCACPTGVKLLENGKTCKDGATELLLLARRTDLRRISLDTPDFTDIVLQLEDIRHAIAIDYDPVEGYIYWTDDEVRAIRRSFIDGSGSQFVVTAQIAHPDGIAVDWVARNLYWTDTGTDRIEVTRLNGTMRKILISEDLEEPRAIVLDPMVGYMYWTDWGEIPKIERAALDGSDRVVLVNTSLGWPNGLALDYDEGKIYWGDAKTDKIEVMNTDGTGRRVLVEDKIPHIFGFTLLGDYVYWTDWQRRSIERVHKRSAEREVIIDQLPDLMGLKATNVHRVIGSNPCAEENGGCSHLCLYRPQGLRCACPIGFELISDMKTCIVPEAFLLFSRRADIRRISLETNNNNVAIPLTGVKEASALDFDVTDNRIYWTDISLKTISRAFMNGSALEHVVEFGLDYPEGMAVDWLGKNLYWADTGTNRIEVSKLDGQHRQVLVWKDLDSPRALALDPAEGFMYWTEWGGKPKIDRAAMDGSERTTLVPNVGRANGLTIDYAKRRLYWTDLDTNLIESSNMLGLNREVIADDLPHPFGLTQYQDYIYWTDWSRRSIERANKTSGQNRTIIQGHLDYVMDILVFHSSRQSGWNECASSNGHCSHLCLAVPVGGFVCGCPAHYSLNADNRTCSAPTTFLLFSQKSAINRMVIDEQQSPDIILPIHSLRNVRAIDYDPLDKQLYWIDSRQNMIRKAQEDGSQGFTVVVSSVPSQNLEIQPYDLSIDIYSRYIYWTCEATNVINVTRLDGRSVGVVLKGEQDRPRAVVVNPEKGYMYFTNLQERSPKIERAALDGTEREVLFFSGLSKPIALALDSRLGKLFWADSDLRRIESSDLSGANRIVLEDSNILQPVGLTVFENWLYWIDKQQQMIEKIDMTGREGRTKVQARIAQLSDIHAVKELNLQEYRQHPCAQDNGGCSHICLVKGDGTTRCSCPMHLVLLQDELSCGEPPTCSPQQFTCFTGEIDCIPVAWRCDGFTECEDHSDELNCPVCSESQFQCASGQCIDGALRCNGDANCQDKSDEKNCEVLCLIDQFRCANGQCIGKHKKCDHNVDCSDKSDELDCYPTEEPAPQATNTVGSVIGVIVTIFVSGTVYFICQRMLCPRMKGDGETMTNDYVVHGPASVPLGYVPHPSSLSGSLPGMSRGKSMISSLSIMGGSSGPPYDRAHVTGASSSSSSSTKGTYFPAILNPPPSPATERSHYTMEFGYSSNSPSTHRSYSYRPYSYRHFAPPTTPCSTDVCDSDYAPSRRMTSVATAKGYTSDLNYDSEPVPPPPTPRSQYLSAEENYESCPPSPYTERSYSHHLYPPPPSPCTDSS
For B2, the localisation_or_trafficking entry is “no change”.

B3: LRP6: N692Q (protein)
parent chain: MGAVLRSLLACSFCVLLRAAPLLLYANRRDLRLVDATNGKENATIVVGGLEDAAAVDFVFSHGLIYWSDVSEEAIKRTEFNKTESVQNVVVSGLLSPDGLACDWLGEKLYWTDSETNRIEVSNLDGSLRKVLFWQELDQPRAIALDPSSGFMYWTDWGEVPKIERAGMDGSSRFIIINSEIYWPNGLTLDYEEQKLYWADAKLNFIHKSNLDGTNRQAVVKGSLPHPFALTLFEDILYWTDWSTHSILACNKYTGEGLREIHSDIFSPMDIHAFSQQRQPNATNPCGIDNGGCSHLCLMSPVKPFYQCACPTGVKLLENGKTCKDGATELLLLARRTDLRRISLDTPDFTDIVLQLEDIRHAIAIDYDPVEGYIYWTDDEVRAIRRSFIDGSGSQFVVTAQIAHPDGIAVDWVARNLYWTDTGTDRIEVTRLNGTMRKILISEDLEEPRAIVLDPMVGYMYWTDWGEIPKIERAALDGSDRVVLVNTSLGWPNGLALDYDEGKIYWGDAKTDKIEVMNTDGTGRRVLVEDKIPHIFGFTLLGDYVYWTDWQRRSIERVHKRSAEREVIIDQLPDLMGLKATNVHRVIGSNPCAEENGGCSHLCLYRPQGLRCACPIGFELISDMKTCIVPEAFLLFSRRADIRRISLETNNNNVAIPLTGVKEASALDFDVTDNRIYWTDISLKTISRAFMNGSALEHVVEFGLDYPEGMAVDWLGKNLYWADTGTNRIEVSKLDGQHRQVLVWKDLDSPRALALDPAEGFMYWTEWGGKPKIDRAAMDGSERTTLVPNVGRANGLTIDYAKRRLYWTDLDTNLIESSNMLGLNREVIADDLPHPFGLTQYQDYIYWTDWSRRSIERANKTSGQNRTIIQGHLDYVMDILVFHSSRQSGWNECASSNGHCSHLCLAVPVGGFVCGCPAHYSLNADNRTCSAPTTFLLFSQKSAINRMVIDEQQSPDIILPIHSLRNVRAIDYDPLDKQLYWIDSRQNMIRKAQEDGSQGFTVVVSSVPSQNLEIQPYDLSIDIYSRYIYWTCEATNVINVTRLDGRSVGVVLKGEQDRPRAVVVNPEKGYMYFTNLQERSPKIERAALDGTEREVLFFSGLSKPIALALDSRLGKLFWADSDLRRIESSDLSGANRIVLEDSNILQPVGLTVFENWLYWIDKQQQMIEKIDMTGREGRTKVQARIAQLSDIHAVKELNLQEYRQHPCAQDNGGCSHICLVKGDGTTRCSCPMHLVLLQDELSCGEPPTCSPQQFTCFTGEIDCIPVAWRCDGFTECEDHSDELNCPVCSESQFQCASGQCIDGALRCNGDANCQDKSDEKNCEVLCLIDQFRCANGQCIGKHKKCDHNVDCSDKSDELDCYPTEEPAPQATNTVGSVIGVIVTIFVSGTVYFICQRMLCPRMKGDGETMTNDYVVHGPASVPLGYVPHPSSLSGSLPGMSRGKSMISSLSIMGGSSGPPYDRAHVTGASSSSSSSTKGTYFPAILNPPPSPATERSHYTMEFGYSSNSPSTHRSYSYRPYSYRHFAPPTTPCSTDVCDSDYAPSRRMTSVATAKGYTSDLNYDSEPVPPPPTPRSQYLSAEENYESCPPSPYTERSYSHHLYPPPPSPCTDSS
Turning to B3, the localisation_or_trafficking entry is “abolishes”.

B4: LRP6: N81Q (protein)
parent chain: MGAVLRSLLACSFCVLLRAAPLLLYANRRDLRLVDATNGKENATIVVGGLEDAAAVDFVFSHGLIYWSDVSEEAIKRTEFNKTESVQNVVVSGLLSPDGLACDWLGEKLYWTDSETNRIEVSNLDGSLRKVLFWQELDQPRAIALDPSSGFMYWTDWGEVPKIERAGMDGSSRFIIINSEIYWPNGLTLDYEEQKLYWADAKLNFIHKSNLDGTNRQAVVKGSLPHPFALTLFEDILYWTDWSTHSILACNKYTGEGLREIHSDIFSPMDIHAFSQQRQPNATNPCGIDNGGCSHLCLMSPVKPFYQCACPTGVKLLENGKTCKDGATELLLLARRTDLRRISLDTPDFTDIVLQLEDIRHAIAIDYDPVEGYIYWTDDEVRAIRRSFIDGSGSQFVVTAQIAHPDGIAVDWVARNLYWTDTGTDRIEVTRLNGTMRKILISEDLEEPRAIVLDPMVGYMYWTDWGEIPKIERAALDGSDRVVLVNTSLGWPNGLALDYDEGKIYWGDAKTDKIEVMNTDGTGRRVLVEDKIPHIFGFTLLGDYVYWTDWQRRSIERVHKRSAEREVIIDQLPDLMGLKATNVHRVIGSNPCAEENGGCSHLCLYRPQGLRCACPIGFELISDMKTCIVPEAFLLFSRRADIRRISLETNNNNVAIPLTGVKEASALDFDVTDNRIYWTDISLKTISRAFMNGSALEHVVEFGLDYPEGMAVDWLGKNLYWADTGTNRIEVSKLDGQHRQVLVWKDLDSPRALALDPAEGFMYWTEWGGKPKIDRAAMDGSERTTLVPNVGRANGLTIDYAKRRLYWTDLDTNLIESSNMLGLNREVIADDLPHPFGLTQYQDYIYWTDWSRRSIERANKTSGQNRTIIQGHLDYVMDILVFHSSRQSGWNECASSNGHCSHLCLAVPVGGFVCGCPAHYSLNADNRTCSAPTTFLLFSQKSAINRMVIDEQQSPDIILPIHSLRNVRAIDYDPLDKQLYWIDSRQNMIRKAQEDGSQGFTVVVSSVPSQNLEIQPYDLSIDIYSRYIYWTCEATNVINVTRLDGRSVGVVLKGEQDRPRAVVVNPEKGYMYFTNLQERSPKIERAALDGTEREVLFFSGLSKPIALALDSRLGKLFWADSDLRRIESSDLSGANRIVLEDSNILQPVGLTVFENWLYWIDKQQQMIEKIDMTGREGRTKVQARIAQLSDIHAVKELNLQEYRQHPCAQDNGGCSHICLVKGDGTTRCSCPMHLVLLQDELSCGEPPTCSPQQFTCFTGEIDCIPVAWRCDGFTECEDHSDELNCPVCSESQFQCASGQCIDGALRCNGDANCQDKSDEKNCEVLCLIDQFRCANGQCIGKHKKCDHNVDCSDKSDELDCYPTEEPAPQATNTVGSVIGVIVTIFVSGTVYFICQRMLCPRMKGDGETMTNDYVVHGPASVPLGYVPHPSSLSGSLPGMSRGKSMISSLSIMGGSSGPPYDRAHVTGASSSSSSSTKGTYFPAILNPPPSPATERSHYTMEFGYSSNSPSTHRSYSYRPYSYRHFAPPTTPCSTDVCDSDYAPSRRMTSVATAKGYTSDLNYDSEPVPPPPTPRSQYLSAEENYESCPPSPYTERSYSHHLYPPPPSPCTDSS
For the protein B4, the localisation_or_trafficking result was “abolishes”.
